For 1 substance, prenyltransferase activity results are on record in patent US20130081152.

The test system of the data set is T1, His-tagged recombinant PbGDPS_SSU (expressed in E. coli from pET15b).
T1 sequence: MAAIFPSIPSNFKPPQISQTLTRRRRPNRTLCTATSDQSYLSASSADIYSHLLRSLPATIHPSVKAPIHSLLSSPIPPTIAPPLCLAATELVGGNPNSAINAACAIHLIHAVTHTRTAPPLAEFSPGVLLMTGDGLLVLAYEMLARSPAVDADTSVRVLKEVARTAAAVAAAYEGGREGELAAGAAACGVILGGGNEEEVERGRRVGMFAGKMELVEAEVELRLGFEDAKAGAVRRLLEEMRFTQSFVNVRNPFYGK

Regarding “His-tagged recombinant PbGDPS_LSU (truncated, expressed in E. coli from pBAD202/D-TOPO)”, the prenyltransferase activity result is recorded as “higher prenyltransferase activity than either PbGDPS_LSU or PbGDPS_SSU alone”.
